From US20130079286A1 (Pieris, published 2013)

How the values were obtained:
Trx-Aβ28 fusion protein [1] = target: T1, Trx-Aβ28 fusion protein (Escherichia coli (strain K12), UniProt P0AA25 1-76 = thioredoxin, Biotin-labelled through an NHS ester (2:1) in the capture and competitive ELISAs; unlabeled in the direct ELISA and as competitor.); experiment: direct ELISA: Trx-Aβ28 coated, mutein titrated, detected via Strep-tag II
T1 construct: the entry may be a nucleic acid; also called TrxAbeta28H6
Protocol: (§1) The Aβ targets Trx-Aβ28 and MBP-Aβ40 as well as the control protein maltose binding protein (MBP) were immobilized at 2 μM in PBS over night. Bound Lcn2 muteins were detected via their Strep-tag II using Streptavidin/AP followed by a chromogenic reaction with pNPP. As a control, the binding of wild-type (wt) lipocalin was tested. The data were fitted to a monovalent binding model.
(§2) Alternatively, for a “direct” ELISA, 2 μM unlabeled Aβ40 target from Example 2 was adsorbed onto a 96-well MaxiSorp polystyrene microliter plate (Nunc, Langenselbold, Germany) and incubated with the purified Lcn2 mutein, which was detected via the Strep-tag II using a 1:1500 dilution of Streptavidin/AP conjugate (GE Healthcare UK Ltd, Buckinghamshire, UK). As a control, 2 μM MBP from Example 2 was adsorbed onto the ELISA plate. Absorption at 405 nm was measured in a SpectraMax 250 reader (Molecular Devices, Sunnyvale, USA).

MBP-Aβ40 fusion protein [2] = target: T2, MBP-Aβ40 fusion protein; experiment: SPR (Biacore), MBP-Aβ40 amine-coupled; same experiment as the 1st table, row 20, column 2, printed with more digits
T2 construct: the entry may be a nucleic acid; Biotin-labelled in the capture ELISA, unlabeled in the direct ELISA and SPR; also called MBP-Abeta40
Protocol: FIG. 8 depicts the kinetic real time analysis of Lcn2 muteins S1-A4 (A) and US7 (B) measured on a Biacore instrument at a flow rate of 10 μl/min. The MBP-Aβ40 fusion protein was coupled via amine chemistry on a CMD 200I chip (ΔRU=1455) and each of the purified Lcn2 muteins was applied in a series at different concentrations. The measured signal is shown as a grey line whereas the curve fit is depicted as a black line in each case.
(§3) Real time analysis of Lcn2 muteins was performed on a Biacore X system (Biacore, Uppsala, Sweden) using PBS/T (PBS containing 0.005% (v/v) Tween 20) as running buffer. A 50 μg/mL solution of MBP-Aβ40 from Example 2 in 10 mM Na-acetate, pH 4.5 was immobilized onto a […] chip (Xantec, Düsseldorf, Germany) using standard amine coupling chemistry, resulting in a ligand density of 1455 resonance units (RU). […] The sensorgrams were corrected by subtraction of the corresponding signals measured for the control channel, which had been activated and blocked with ethanolamine. […] During this step the kₒₙ and koff rates were fitted globally, while the maximum response difference Rₘₐₓ was fitted locally for each curve.

MBP-Aβ40 fusion protein [3] = target: T2, MBP-Aβ40 fusion protein; experiment: SPR (Biacore X), MBP-Aβ40 amine-coupled, mutein as analyte
Protocol: as §3

MBP-Aβ40 fusion protein [4] = target: T2, MBP-Aβ40 fusion protein; experiment: capture ELISA: mutein captured, biotinylated MBP-Aβ40 titrated
Protocol: (§4) FIG. 5 depicts the binding activity of the Lcn2 muteins H1-G1, S1-A4, and US7 in capture ELISAs with different biotinylated Aβ targets. StrepMAB-Immo at 10 μg/ml was immobilized on microtitre plates and employed for capturing of 1 JAM Lcn2 muteins via the Strep-tag H. In figures A to C the binding of the Lcn2 muteins S1-A4 and US7 to (A) biotinylated Aβ40, (B) biotinylated Trx-Aβ28, and (C) biotinylated MBP-Aβ40 are shown. Binding was detected by incubation with ExtrAvidin/AP and a subsequent chromogenic reaction with pNPP. Ovalbumin (Ova), thioredoxin (Trx), and maltose binding protein (MBP) were used as negative controls. Additionally, binding of wild-type (wt) lipocalin was tested. The data were fitted to a monovalent binding model.
For selective capturing of the Lcn2 muteins carrying the C-terminal Strep-tag II (Schmidt and Skerra (2007) Nat. Protoc. 2, 1528-1535), a 96-well MaxiSorp polystyrene microtitre plate (Nunc, Langenselbold, Germany) was coated with 10 μg/mL StrepMAB-Immo (IBA, Göttingen, Germany) in PBS over night at 4° C. and blocked with 3% (w/v) BSA in PBS/T at room temperature for 1 h. After 3 washing steps with PBS/T, 50 μL of a 1 μM solution of the purified Lcn2 muteins from Example 7 were applied to all wells for 1 h. […]

[5] = target: T3, biotinylated Aβ40 peptide (human, C-terminal biotin group attached via a lysine spacer); experiment: capture ELISA: mutein captured via Strep-tag II on StrepMAB-Immo, biotinylated Aβ40 titrated
T3 construct: Synthetic peptide (Peptide Speciality Laboratory) with a C-terminal biotin on a lysine spacer; used in the capture ELISAs
T3 sequence (peptide, as listed by the source): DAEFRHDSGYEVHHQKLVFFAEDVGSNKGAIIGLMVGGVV
Protocol: as §4
(§5) For selective capturing of the Lcn2 muteins carrying the C-terminal Strep-tag II (Schmidt and Skerra (2007) Nat. Protoc. 2, 1528-1535), a 96-well MaxiSorp polystyrene microtitre plate (Nunc, Langenselbold, Germany) was coated with 10 μg/mL StrepMAB-Immo (IBA, Göttingen, Germany) in PBS over night at 4° C. and blocked with 3% (w/v) BSA in PBS/T at room temperature for 1 h. After 3 washing steps with PBS/T, 50 μL of a 1 μM solution of the purified Lcn2 muteins from Example 7 were applied to all wells for 1 h. After washing, 50 μL of a dilution series of the biotinylated targets Aβ40, MBP-Aβ40 or Trx-Aβ28 from Example 2 were added and incubated for 1 h whereby the biotinylated forms of Ova, MBP and Trx from Example 2 served as negative control proteins. The wells were washed again and bound conjugate was detected with 50 μL of ExtrAvidin/AP conjugate (Sigma-Aldrich, Steinheim, Germany) diluted 1:5000 in PBS/T for 1 h, followed by signal development in the presence of 100 μL 0.5 mg/mL p-nitrophenyl phosphate (AppliChem, Darmstadt, Germany) in 100 mM Tris/HCl, pH 8.8, 100 mM NaCl, 5 mM MgCl₂.

ovalbumin = target: T4, ovalbumin (UniProt P01012 2-386); experiment: capture ELISA: 1 µM Lcn2 protein captured via Strep-tag II on coated StrepMAB-Immo, biotinylated target titrated, ExtrAvidin/AP + pNPP
T4 sequence (looked up): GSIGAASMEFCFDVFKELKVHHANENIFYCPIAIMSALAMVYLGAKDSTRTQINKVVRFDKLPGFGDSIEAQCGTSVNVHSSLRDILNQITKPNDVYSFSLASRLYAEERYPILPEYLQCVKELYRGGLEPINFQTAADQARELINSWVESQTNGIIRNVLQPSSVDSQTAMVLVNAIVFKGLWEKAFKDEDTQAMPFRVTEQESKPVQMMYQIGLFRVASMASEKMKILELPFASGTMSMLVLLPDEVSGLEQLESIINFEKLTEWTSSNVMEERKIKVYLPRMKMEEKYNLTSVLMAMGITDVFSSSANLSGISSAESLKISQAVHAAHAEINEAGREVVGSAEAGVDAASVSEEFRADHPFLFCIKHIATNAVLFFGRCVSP
Protocol: as §4, §5

Trx-Aβ28 fusion protein [6] = target: T1, Trx-Aβ28 fusion protein; experiment: competitive ELISA: mutein captured, 5 nM biotinylated Trx-Aβ28 as tracer, unlabeled Trx-Aβ28 varied as competitor
MBP-Aβ40 fusion protein [7] = target: T2, MBP-Aβ40 fusion protein; experiment: direct ELISA: MBP-Aβ40 coated, mutein titrated, detected via Strep-tag II
Protocol: as §1, §2

B1: Lcn2 mutein S1-A4 (designed binder)
chain: QDSTSDLIPAPPLSKVPLQQNFQDNQFHGKWYVVGVAGNYTLREDKDPLKMYATIYELKEDKSYNVTSVGFRLKKCNYKIRTFVPGSQPGEFTLGIIKSQPGMTSYLVRVVSTNYNQHAMVFFKTVGQNREMFNITLYGRTKELTSELKENFIRFSKSLGLPENHIVFPVPIDQCIDG
In the case of B1, the Kd (Trx-Aβ28 fusion protein [1]) is reported as 16.2 nM, the Kd (MBP-Aβ40 fusion protein [2]) is reported as 1.74 nM and the Kd (MBP-Aβ40 fusion protein [3]) is reported as 1.7 nM. The Kd (MBP-Aβ40 fusion protein [4]) was 4.7 nM, the Kd [5] was 2.7 nM and the binding result (ovalbumin) was “no binding (tested: 250 nM)”. For the same binder, the Kd (Trx-Aβ28 fusion protein [6]) was 21.7 nM and the Kd (MBP-Aβ40 fusion protein [7]) was 149 nM.
